Here are results for 10 molecules from US20240166737A1 (Janssen / Centocor, published 2024).

Test [1] concerns the target T1, CD3 epsilon on human T-cells (human, UniProt P07766 23-207). In words: cell-based or functional assay.
In test [2] the target is T1, CD3 epsilon on human T-cells. In words: T cell binding.
For test [3] the target is unchanged. In words: T-cell binding assay, FIG. 15.
Test [4] deals with T2, MSNW10, recombinant full length human MSLN (human, UniProt Q13421 296-598).
T2 construct: also called MSNW10.002; FL-MSLN
As to the kind of experiment: SPR, additional experiments. On the technique in general: Surface plasmon resonance follows binding to a sensor surface in real time, without labels.

The target in test [5] is T3, MSNW11, recombinant soluble (shed) MSLN lacking the C-terminal 7 AAs (human, UniProt Q13421 296-591).
T3 construct: domain: soluble MSLN lacking the C-terminal 7 AAs; also called MSNW11.002; soluble MSLN
In words: H838 cell binding with shed MSLN (MSNW11) added. An excerpt: Table 16 lists the immunization campaigns, antigens used, and number of clones returned at each stage of screening. Clones from which antibody sequences were successfully recovered were first screened for binding to recombinant full length human MSLN (MSNW10) and H838 cells that express MSLN on the cell surface. Binders were further screened for binding to cells in the presence of recombinant soluble MSLN lacking the C-terminal 7 AAs (MSNW11). This form of recombinant MSLN represented the product of cleavage at the closest cleavage site to the C-terminus known at the time, therefore, it theoretically represented the longest form of shed MSLN. The final concentration of shed MSLN in the assays was 100 nM.

Test [6] addresses T2, MSNW10, recombinant full length human …. As to the kind of experiment: SPR, recombinant full-length human MSLN.
The target in test [7] is T4, 8 AA stub (a.a. 296-303 of SEQ ID NO: 247) (human).
T4 construct: also called 8 AA Peptide; peptide of the last 8 C-terminal amino acids
T4 peptide: LSMQEALS
In words: competition of OVCAR8 cell binding by the peptide.

Test [8] concerns the target T5, human MSLN on the cell surface (human, UniProt Q13421 296-598).
T5 construct: on cells stands the processed GPI-anchored 40 kDa MSLN; also called membrane MSLN; MSLN on H838, OVCAR-8 (OVCAR8), OVCAR-8 K1/C8, SK-OV-3 cells
In words: high content imaging, surface staining of OVCAR8 cells. On the procedure:
OVCAR8 cells were cultured in RPMI 1640 medium supplemented with 10% FCS, 1% L-glutamine and 1% Gentamycin and seeded in Greiner CELLSTAR plate one day before experiment. 24 h after seeding, antibody mixture was prepared by diluting MSLN and control antibodies in Table 21 in full media containing CellMask™ Deep Red Plasma Membrane Stain (ThermoFisher, C10046) in 12 concentrations each with 3 folds dilution starting from 20 μg/ml and 20 μl of which were added directly to the cells in 20 μl. Antibodies were allowed for binding to the cell surface for 2h inside the incubator (37°) C. and the surface bound antibodies were fixed for 15 min at RT by directly adding 30 ul of 10% Formaldehyde (04018-1, Polysciences). Afterwards residual Formaldehyde was removed by washing the cells twice with PBS and the primary antibodies were stained with secondary antibodies (Alexa Fluor 488 goat anti-human IgG, Invitrogen, A11013) complemented with Hoechst 33342 (H3570, ThermoFisher) and HCS CellMask™ Deep Red Stain (ThermoFisher, H32721) in PBS for 1h at RT. After removing unbound antibodies and other dyes by washing the cells 3 times with PBS cells were imaged on the CellVoyager 7000 (Yokogawa, Tokyo, Japan) using a 40×/0.95 objective. Of each well, 9 fields were imaged. Image analysis was performed with Acapella (PerkinElmer, Waltham, MA, USA) and the results stored in Phaedra (OpenAnalytics, Antwerp, Belgium). Data analysis was done in R (www.r-project.org).
The data was then fitted using the four-parameter logistic using least-squares regression, keeping the lower boundary fixed at 0.

Test [9] deals with T6, 7 AA stub (a.a. 297-303 of SEQ ID NO: 247) (human).
T6 peptide: SMQEALS
In words: SPR, mAb captured, peptide injected. On the procedure: (§1) The binding was assessed by SPR. Briefly, GAH-Fc was used to capture mAbs on C4 sensor chip followed by antigen injection starting at 30 nM (14 amino acid stub), 100 nM (10-13 amino acid stubs), or 1000 nM (7-9 amino acid stubs) progressing in a 3-fold dilution series in single cycle kinetics mode. HBSP+0.01% BSA was used in the assay.

Test [10] has as its target T7, 13 AA stub (a.a. 291-303 of SEQ ID NO: 247) (human).
T7 peptide: YLVLDLSMQEALS
In words: SPR, mAb captured, peptide injected. On the procedure:
as §1

Test [11] deals with T8, 14 AA stub (a.a. 290-303 of SEQ ID NO: 247) (human).
T8 peptide: GYLVLDLSMQEALS
As to the kind of experiment: SPR, mAb captured, peptide injected. On the procedure:
as §1

The target in test [12] is T9, 9 AA stub (a.a. 295-303 of SEQ ID NO: 247) (human).
T9 peptide: DLSMQEALS
As to the kind of experiment: SPR, mAb captured, peptide injected. The method, then:
as §1

Test [13] deals with T10, 11 AA stub (a.a. 293-303 of SEQ ID NO: 247) (human).
T10 peptide: VLDLSMQEALS
As to the kind of experiment: SPR, mAb captured, peptide injected. On the procedure:
as §1

In test [14] the target is T11, 10 AA stub (a.a. 294-303 of SEQ ID NO: 247) (human).
T11 peptide: LDLSMQEALS
As to the kind of experiment: SPR, mAb captured, peptide injected. The method, then: as §1

Test [15] has as its target T12, 12 AA stub region peptide LVLDLSMQEALS (human).
T12 construct: free N-terminus; also called 12 AA Peptide
T12 peptide: LVLDLSMQEALS
As to the kind of experiment: SPR, mAb captured, peptide injected. The method, then:
as §1

Test [16] concerns the target T12, 12 AA stub region peptide LVLDLSMQEALS
In words: SPR.

T2 sequence (Q13421 other isoform, or with tags, fused parts or gaps limits assumed): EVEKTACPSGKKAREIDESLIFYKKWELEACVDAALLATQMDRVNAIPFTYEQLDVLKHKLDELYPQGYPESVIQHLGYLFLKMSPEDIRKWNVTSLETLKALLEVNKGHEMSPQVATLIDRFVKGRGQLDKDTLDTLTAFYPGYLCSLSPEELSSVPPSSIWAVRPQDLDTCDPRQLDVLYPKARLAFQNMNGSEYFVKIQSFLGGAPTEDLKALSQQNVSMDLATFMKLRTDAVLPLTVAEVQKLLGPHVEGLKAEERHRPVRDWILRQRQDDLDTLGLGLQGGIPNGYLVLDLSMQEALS
T1 sequence (P07766 23-207 limits assumed): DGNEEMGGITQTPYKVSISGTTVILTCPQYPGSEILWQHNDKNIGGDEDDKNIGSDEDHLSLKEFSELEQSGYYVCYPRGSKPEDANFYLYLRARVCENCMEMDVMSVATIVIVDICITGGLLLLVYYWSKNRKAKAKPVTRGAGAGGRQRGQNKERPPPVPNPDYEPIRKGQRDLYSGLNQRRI
T3 sequence (Q13421 other isoform, or with tags, fused parts or gaps limits assumed): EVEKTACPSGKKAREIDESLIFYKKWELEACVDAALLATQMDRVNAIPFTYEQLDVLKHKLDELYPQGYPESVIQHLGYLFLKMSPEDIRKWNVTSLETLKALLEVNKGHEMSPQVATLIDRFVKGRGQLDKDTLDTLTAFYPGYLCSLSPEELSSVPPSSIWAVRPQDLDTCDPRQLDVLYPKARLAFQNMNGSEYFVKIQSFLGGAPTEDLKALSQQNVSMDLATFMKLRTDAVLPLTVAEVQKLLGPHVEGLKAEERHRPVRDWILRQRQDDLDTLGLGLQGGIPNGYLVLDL

B1: MNC3B199 (bispecific antibody, V domains shown, not shown: a dimerising Fc or GST; small tags and cut ends)
VH 1: QVQLVESGPGQVKPSQTLSLTCAISGDSVSSNSAAWNWIRQSPSRGLEWLGRTYYRSKWYNDYAVSVKSRITINPDTSKNQFSLQLNSVTPEDTAVYYCARRDYSSGGFDYWGQGTTVTVSS
VL 1: not shown
VH 2: QVQLVQSGAEVKKPGSSVKVSCKASGYTFTRSTMHWVKQAPGQGLEWMGYINPSSAYTNYNQKFQGRVTLTADKSTSTAYMELSSLRSEDTAVYYCASPQVHYDYAGFPYWGQGTLVTVSS
VL 2: EIVLTQSPATLSASPGERVTLSCSASSSVSYMNWYQQKPGQAPRRLIYDSSKLASGVPARFSGSGSGRDYTLTISSLEPEDFAVYYCQQWSRNPPTFGGGTKVEIK
For the molecule B1, in test [1], the “AC90 [nM], cytotoxicity, 1:1 E:T, 72 hours” value was 7.32 nM; the “Max. Activity, cytotoxicity, 1:1 E:T, 72 hours” value is 85%; the “qAC50 [nM], cytotoxicity, 1:1 E:T, 72 hours” value amounted to 1.19 nM.

B2: CD3B2030-N106A (scFv, V domains shown)
VH: QVQLVQSGAEVKKPGSSVKVSCKASGYTFTRSTMHWVKQAPGQGLEWIGYINPSSAYTNYNQKFQGRVTLTADKSTSTAYMELSSLRSEDTAVYYCASPQVHYDYAGFPYWGQGTLVTVSS
VL: EIVLTQSPATLSASPGERVTLSCSASSSVSYMNWYQQKPGQAPRRWIYDSSKLASGVPARFSGSGSGRDYTLTISSLEPEDFAVYYCQQWSRNPPTFGGGTKVEIK
B2: the EC50 – broadly, the concentration at which the effect is half-maximal – in [2] was 50 to 100 nM.

B3: CD3W245 HL formatted in the 2+1 format (bispecific antibody)
scFv: EVQLVESGGGLVKPGGSLRLSCAASGFTFSRYNMNWVRQAPGKGLEWVSSISTSSNYIYYADSVKGRFTFSRDNAKNSLDLQMSGLRAEDTAIYYCTRGWGPFDYWGQGTLVTVSSGGSEGKSSGSGSESKSTGGSDIQMTQSPSSLSASVGDRVTITCRARQSIGTAIHWYQQKPGKAPKLLIKYASESISGVPSRFSGSGSGTDFTLTISSLQPEDFATYYCQQSGSWPYTFGQGTKLEIK
VH: QVQLVESGPGQVKPSQTLSLTCAISGDSVSSNSAAWNWIRQSPSRGLEWLGRTYYRSKWYNDYAVSVKSRITINPDTSKNQFSLQLNSVTPEDTAVYYCARRDYSSGGFDYWGQGTTVTVSS
VL: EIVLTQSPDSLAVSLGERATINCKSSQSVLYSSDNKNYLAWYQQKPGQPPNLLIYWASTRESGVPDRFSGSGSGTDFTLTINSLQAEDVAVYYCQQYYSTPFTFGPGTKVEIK
notes: two MSLN targeting (MSNB457) Fabs and one CD3 scFv set between Fab and Fc of one heavy chain; also called CD3W245 HL 2+1
Take B3: the EC50 in [3] was 44 nM.

B4: CD3B2051-N106A (scFv, V domains shown)
VH: QVQLVQSGAEVKKPGSSVKVSCKASGYTFTRSTMHWVKQAPGQGLEWMGYINPSSAYTNYNQKFQGRVTLTADKSTSTAYMELSSLRSEDTAVYYCASPQVHYDYAGFPYWGQGTLVTVSS
VL: EIVLTQSPATLSASPGERVTLSCSASSSVSYMNWYQQKPGQAPRRLIYDSSKLASGVPARFSGSGSGRDYTLTISSLEPEDFAVYYCQQWSRNPPTFGGGTKVEIK
notes: CD3 targeting scFv
In [2], B4 gave an EC50 of 50 to 100 nM.

B5: MSLNB590 (antibody, V domains shown)
VH: QVQLQQSGPGLVKPSQTLSLTCAISGDSVSSTRAAWNWIRQSPSRGLEWLGRTYYRSKWYNDYTVSVKSRITINPDTSKNQFSLHLNSVTPEDSAVYFCARGNVGRVDFWGQGTLVTVSS
VL: EIVMTQSPLSLPVTPGEPASISCRSSQSLLHSDGYNYLDWYLQKPGQSPQLLIYLGSNRASGVPDRFSGSGSDTDFTLKISRVEAEDVGVYYCMQGLRTPLTFGPGTKLEIK
notes: mAb; also called MSNB590
As for B5, the Kd (usually the concentration at which binding is half-saturated) in test [4] was 1.2 nM. In test [5], the binding result is “no binding (tested: 100 nM)”.

B6: MSNB133 (antibody, V domains shown)
VH: QVQLQQSGPGLVKPSQTLSLTCAISGDSVSSNRVAWNWIRQSPSRGLEWLGRTYYRSKWYNDFALSVKSRININADTSKSQFSLQLNSVTPEDTAVYYCARGIVGALDYWGQGTTVTVSS
VL: DIVMTQSPLSLPVTPGEPASISCRSSQSLLFSNGYNSLDWYLQKPGQSPQLLIYLGSNRASGVPDRFSGSESGTDFTLKISRVEAEDVGVYYCMQALQTPFTFGPGTKLEIK
notes: mAb
For the molecule B6, the dissociation constant (Kd) in test [6] is 3.7 nM. In addition, the binding result in [5] is reported as “no binding (tested: 100 nM)”.

B7: MSLNB570 (antibody, V domains shown)
VH: QVQLQQSGPGLVKPSQTLSLTCAISGDSVSSTSVAWNWIRQSPSGGLEWLGRTYYRSKWYNDYALSVKSRMTINPDTASNQFSLQLNSVTPEDTAVYYCSRGIVGALDYWGQGTLVTVSS
VL: DIVMTQTPLSLPVTPGGPASISCRSSQSLMYSNGYNHLDWYLQKPGQSPQFLIHLGSNRVSGVPDRFSGSGSGTDFTLKISRVEAEDVGVYYCMQALRTPYTFGQGTKVDIK
notes: mAb; also called MSNB570
Take B7: the binding result is given as “no binding” in test [7]; “no binding (tested: 1000 nM)” in [9]; “no binding (tested: 1000 nM)” in [12]; “no binding (tested: 100 nM)” in test [13]; “no binding (tested: 100 nM)” in test [14]; “no binding (tested: 100 nM)” in test [5]. Also, the Kd came to 3.6 nM in test [6], 4.37 nM in test [10], 3.67 nM in test [11] and 7.97 nM in test [15]. For the same molecule, in test [8], half-maximal inhibition (IC50) required 0.0728 µg/mL. Further, the “Maximum Value (arbitrary units)” value in test [8] was determined as 1.39e+07 arbitrary units.

B8: MSNB459 (antibody, V domains shown)
VH: EVQLVQSGPGLVKPSQTLSLTCAISGDSVSSNSVAWNWIRQSPSRGLEWLGRTYYRSKWYNDYALSVKSRITINPDTSKNQFSLQLNSVTPEDTAVYYCARGVVGAVDYWGQGTLVTVSS
VL: DIVMTQSPLSLPVTPGEPASISCRSSQNLLYSNGYNSLDWYLQKPGQSPQLLIYLGSNRASGVPDRFSGSGSGTDFTLKISRVEAEDVGVYYCMQGLRTPLTFGGGTKVEIK
notes: mAb
Turning to B8, the Kd in [6] is 3.5 nM. The binding result in test [5] was “no binding (tested: 100 nM)”.

B9: MSLNB571 (antibody, V domains shown)
VH: QVQLQQSGPGLVKPSQTLSLTCAISGDSVSSTSVAWNWIRQSPSGGLEWLGRIYYRSKWYNDYALSVKSRMTINPDTASNQFSLQLNSVTPEDTAVYYCSRGIVGALDYWGQGTLVTVSS
VL: DIVMTQTPLSLPVTPGGPASISCRSSQSLMYSNGYNHLDWYLQKPGQSPQFLIHLGSNRVSGVPDRFSGSGSGTDFTLKISRVEAEDVGVYYCMQALRTPYTFGQGTKVDIK
notes: mAb; also called MSNB571
Regarding B9, the binding result in [16] was “binds”. For the same molecule, the Kd in test [6] amounted to 1.8 nM. Besides, in test [8], the midpoint of inhibition, the IC50, lay at 0.0735 µg/mL and the “Maximum Value (arbitrary units)” value worked out at 1.46e+07 arbitrary units. Further, in test [5], the binding result is given as “no binding (tested: 100 nM)”.

B10: MSLNB592 (antibody, V domains shown)
VH: QVQLQQSGPGLVKPSQTLSLTCAISGDSVSSTSVAWNWIRQSPSGGLEWLGRTYYRSKWYNDYALSVKSRMTINPDTASNQFSLQLNSVTPEDTAVYYCSRGIVGALDYWGQGTLVTVSS
VL: DIVMTQSPLSLPVTPGEPASISCRSSQSLMYSNGYNHLDWYLQKPGQSPQFLIHLGSNRASGVPDRFSGSGSGTDFTLKISRVEAEDVGVYYCMQALRTPYTFGQGTKVEIK
notes: mAb; also called MSNB592
On to B10, for which the dissociation constant Kd in test [4] is 0.9 nM. The binding result in [5] is reported as “no binding (tested: 100 nM)”.
